Test results as given in the supplement of paper PMC12042874.
± gives the uncertainty stated by the source.

Test: amyloid nucleation score (Sup35N fusion, yeast selection) (log enrichment); library NNK3; higher = more nucleation; inactive = no reads after selection
Outline: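 DiMSum was used to calculate nucleation scores as log enrichment of output over input reads, centred on the mode score of non-aggregating sequences. Sequences with fewer than 100 input reads were not scored. Input and output came from Illumina sequencing of plasmid inserts in psi-negative yeast expressing peptides of 20 random codons fused to Sup35N, induced 24 hours with 100 μM copper sulfate and then grown 7 days at 30°C on medium lacking adenine and uracil.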

Amyloid nucleation score, -0.352 ± 0.36:
GSRVN

Amyloid nucleation score, 2.39 ± 0.063:
HFCSGSINMMNFLSKDYKMQ

Amyloid nucleation score, inactive:
GSRIGGVL
GSSRCNGRLWSAG
GSSSSVYWFLDGCDTLKRHM
GSSWCLTLWLKNSLATVQTQ
GSVGTNCSGFVAPELRSPRC
GSYRWAVGGKDWGHWDRCLA
GSYSRTLTYPHGENHENRKV
GTCKS
GTFVFTYMWFNIYRQNDFRN
GTIRDSGSHYKVISF
GTITPRYRYVIEVSSMKRYW
GTIYMFENGSSVS
GTLCTETHGT
GTMYVGSGGYEKL
GTQVYTGGRVYERLRVMSCV
GVFWLLNICQYGPRLRHMWS
GVGTYI
GVLREEL
GVLVTANLYFWMEPSALPAM
GVNVWRYLCH
GVRVS
GVSYMNCTHWTL
GVTLFSVVQTFLVSTLCKIE
GVTQVIWVAYNILFLNNCWM
GVVYWVIRKTIEGSLQFASI
GWGIICFAKY
GWKFMREYSKRIGSSSPVVY
GWSFAWCTRVRVMGKVAVWW
GYISMSNKHMGVYIHLA
GYLLVVW
GYQDSIGFSSR
GYRSCCCEKLRSRSCGSSWA
GYSNFDCLSSLNISEYGPAA
GYTDRLVLNRKGGQYGGFEN
GYTMRG
GYYANGISRPVILLMFWRVR
HAKADL
HCDCTFYSSLGFIGGTWDSC
HDAVLI
HDCSYLGILKDMDS
HDESQVVLCRYCCSDVRLTH
HFCKRLENIVYLRIFIFYLN
HFFNPCQGHRNKVPRRAS
HFGQCSVMMCDAWGMSDQGP
HFLLNWSRQI
HFMLNIWKVDNNMLWVLICP
HFNPPYRMFPHYVLLMNMYL
HFVLWHLKGSQFGGSVAVIQ
HGQFMWLMYYMNILSFLLGF
HGSYSDGVEVNEFRLGTRVG
HGVWSCRWWLNNRMF
HHLTFTGGWYPDWHSLFMGG
HHRLSGEMSSWVATATCWVG

Amyloid nucleation score, -0.451 ± 0.98:
GYVVQIMFYILVVHTTWSSA

Amyloid nucleation score, 1.34 ± 0.11:
HDKAVQEVGQGCGE

Amyloid nucleation score, -0.357 ± 1.1:
GYGVCNNDKCVQDAPGQPVS

Amyloid nucleation score, 2.28 ± 0.075:
HFEIVSVANKITYCLCQQML

Amyloid nucleation score, 1.42 ± 0.14:
GYLSFIVFMGGRPSLSGNSI

Amyloid nucleation score, 1.3 ± 0.089:
GSSAPKWVWNWFVPYGKRQG

Amyloid nucleation score, -0.708 ± 1.4:
HHLSTRINCIDRVRSPNLRL

Amyloid nucleation score, 1.08 ± 0.15:
GYAADMIFYQGHHMKISMFR

Amyloid nucleation score, 0.422 ± 0.38:
GWKANWELCRVYVQWSGLNV

Amyloid nucleation score, 2.78 ± 0.055:
GVVANFSLPLSAVFAWRSFR
